# From article PMC12259267, “Disruption of the KLHL37–N-Myc complex restores N-Myc degradation and arrests neuroblastoma growth in mouse models” (The Journal of Clinical Investigation, 2025)
# T1: recombinant KLHL37-His protein (UniProt O14682 1-589)
# T1 construct: Kelch-like protein 37 (KLHL37), also known as ectodermal-neural cortex 1 (ENC1); also called rKLHL37-His; KLHL37-His (6x); source: E. coli BL21, purified (HisTrap HP)
# T1 sequence (looked up): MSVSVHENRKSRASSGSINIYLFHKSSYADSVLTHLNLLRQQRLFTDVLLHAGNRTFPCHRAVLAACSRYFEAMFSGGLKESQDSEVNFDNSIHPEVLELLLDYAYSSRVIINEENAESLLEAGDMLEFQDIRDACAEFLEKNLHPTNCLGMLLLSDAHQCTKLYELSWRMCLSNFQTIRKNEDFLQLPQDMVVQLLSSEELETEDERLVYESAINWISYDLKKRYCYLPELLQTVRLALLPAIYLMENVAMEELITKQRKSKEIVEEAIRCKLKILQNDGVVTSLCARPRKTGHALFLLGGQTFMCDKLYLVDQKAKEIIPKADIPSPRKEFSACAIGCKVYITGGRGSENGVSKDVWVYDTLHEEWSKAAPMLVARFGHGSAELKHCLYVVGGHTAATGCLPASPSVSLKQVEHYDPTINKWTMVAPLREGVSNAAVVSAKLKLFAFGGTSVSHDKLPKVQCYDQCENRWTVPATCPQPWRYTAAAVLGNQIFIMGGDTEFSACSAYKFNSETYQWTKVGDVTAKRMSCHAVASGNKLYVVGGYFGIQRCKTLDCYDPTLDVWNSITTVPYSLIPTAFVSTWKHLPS
# T2: KLHL37-His recombinant protein (UniProt O14682 1-589)
# T2 construct: Kelch-like protein 37 (KLHL37, ENC1); the methods name only KLHL37-His; also called recombinant KLHL37; KLHL37-His (6×); source: E. coli BL21, purified (HisTrap HP)
# T2 sequence (looked up): T1 sequence (looked up)
# B1: recombinant GST-N-Myc protein (natural protein, UniProt P04198 1-464, looked up)
# chain: MPSCSTSTMPGMICKNPDLEFDSLQPCFYPDEDDFYFGGPDSTPPGEDIWKKFELLPTPPLSPSRGFAEHSSEPPSWVTEMLLENELWGSPAEEDAFGLGGLGGLTPNPVILQDCMWSGFSAREKLERAVSEKLQHGRGPPTAGSTAQSPGAGAASPAGRGHGGAAGAGRAGAALPAELAHPAAECVDPAVVFPFPVNKREPAPVPAAPASAPAAGPAVASGAGIAAPAGAPGVAPPRPGGRQTSGGDHKALSTSGEDTLSDSDDEDDEEEDEEEEIDVVTVEKRRSSSNTKAVTTFTITVRPKNAALGPGRAQSSELILKRCLPIHQQHNYAAPSPYVESEDAPPQKKIKSEASPRPLKSVIPPKAKSLSPRNSDSEDSERRRNHNILERQRRNDLRSSFLTLRDHVPELVKNEKAAKVVILKKATEYVHSLQAEEHQLLLEKEKLQARQQQLLKKIEHARTC
# notes: N-Myc; also called rGST-N-Myc; source: SF9 insect cells (baculovirus), purified (GST TRAP HP); not shown: GST, N-terminal, kept
# B2: GST–N-Myc recombinant protein (natural protein, UniProt P04198 1-464, looked up)
# chain: B1 chain
# notes: N-Myc; source: SF9 insect cells (baculovirus), purified (GST TRAP HP); not shown: GST, N-terminal, kept
# B3: recombinant GFP–N-Myc (natural protein, UniProt P04198 1-464, looked up)
# chain: B1 chain
# notes: N-Myc; also called rGFP–N-Myc; source: E. coli BL21
# Assays:
# Details in all cases: both partners purified
# [1] = biological target: T1, recombinant KLHL37-His protein; assay: pull-down; in vitro co-IP: recombinant KLHL37-His incubated with GST fusion protein at RT (25°C) for 3 hours, then GST resin (preblocked with 1% BSA); IP: GST, IB: KLHL37
# [2] = biological target: T2, KLHL37-His recombinant protein; assay: pull-down; in vitro co-IP: recombinant KLHL37-His incubated with GST or GST–N-Myc at RT (25°C) for 3 hours, then GST resin preblocked with 1% BSA
# [3] = biological target: T2, KLHL37-His recombinant protein; assay: MST; GFP–N-Myc or GFP–C-Myc at 200 nM in PBS-T (0.05% Tween 20); KLHL37-His serially diluted 16 times from 27.3 nM (N-Myc) or 7 μM (C-Myc); mixed 1:1; EC50 fitted
binder,measurement,setting,value
B1,binding result,[1],binds
B2,binding result,[2],binds
B3,binding result,[3],binds
